Experimental data as given in patent US20240159767A1.

Molecular target: PKA substrate fused to MinD (phosphorylated form) (Escherichia coli)
Experiment: power ratio of live-cell fluorescence oscillations, saturating isoprenaline

“FHA1-mCerulean (from UniProt P22216 22-162)” showed a fold increase of the power ratio of the FHA1 signal to the MinDE carrier after a saturating dose of isoprenaline against resting cells of under 7 fold.
